Data from article PMC12817906, “SVCV phosphoprotein hijacks phase separation to immobilize the IRF3-TBK1 signaling axis and suppress interferon antiviral immunity” (Journal of Virology, 2025).
“And” between values parts separate entries of the source, which are not always exact repeats. Equal values may be shown once.

Experiments:
[1] = molecular target: purified recombinant zebrafish IRF3 (His-tagged) (zebrafish); experiment: MST; Monolith NT.115; homotypic titration (SVCV-P with SVCV-P, IRF3 with IRF3), labeled protein with unlabeled ligand at 16 concentrations, room temperature; which label was used is not told
[2] = molecular target: mCherry-tagged zebrafish TBK1 protein (zebrafish); experiment: MST; Monolith NT.115; mCherry-tagged TBK1 as the fluorescent protein, unlabeled SVCV-P or IRF3 at 16 concentrations, protein storage buffer, room temperature 10 min, 40% LED, medium MST power
[3] = molecular target: the molecule itself; experiment: MST; Monolith NT.115; homotypic titration (SVCV-P with SVCV-P, IRF3 with IRF3), labeled protein with unlabeled ligand at 16 concentrations, room temperature; which label was used is not told
[4] = molecular target: T1, mCherry-tagged zebrafish TBK1 protein (zebrafish, UniProt A0ACM8QAS8 1-727); experiment: MST; Monolith NT.115; mCherry-tagged TBK1 as the fluorescent protein, unlabeled SVCV-P or IRF3 at 16 concentrations, protein storage buffer, room temperature 10 min, 40% LED, medium MST power; settings: both partners purified
T1 construct: also called mCherry-TBK1; pFastBac1-mCherry-His-TBK1; source: Sf9 (baculovirus), purified (Ni-NTA)
T1 sequence: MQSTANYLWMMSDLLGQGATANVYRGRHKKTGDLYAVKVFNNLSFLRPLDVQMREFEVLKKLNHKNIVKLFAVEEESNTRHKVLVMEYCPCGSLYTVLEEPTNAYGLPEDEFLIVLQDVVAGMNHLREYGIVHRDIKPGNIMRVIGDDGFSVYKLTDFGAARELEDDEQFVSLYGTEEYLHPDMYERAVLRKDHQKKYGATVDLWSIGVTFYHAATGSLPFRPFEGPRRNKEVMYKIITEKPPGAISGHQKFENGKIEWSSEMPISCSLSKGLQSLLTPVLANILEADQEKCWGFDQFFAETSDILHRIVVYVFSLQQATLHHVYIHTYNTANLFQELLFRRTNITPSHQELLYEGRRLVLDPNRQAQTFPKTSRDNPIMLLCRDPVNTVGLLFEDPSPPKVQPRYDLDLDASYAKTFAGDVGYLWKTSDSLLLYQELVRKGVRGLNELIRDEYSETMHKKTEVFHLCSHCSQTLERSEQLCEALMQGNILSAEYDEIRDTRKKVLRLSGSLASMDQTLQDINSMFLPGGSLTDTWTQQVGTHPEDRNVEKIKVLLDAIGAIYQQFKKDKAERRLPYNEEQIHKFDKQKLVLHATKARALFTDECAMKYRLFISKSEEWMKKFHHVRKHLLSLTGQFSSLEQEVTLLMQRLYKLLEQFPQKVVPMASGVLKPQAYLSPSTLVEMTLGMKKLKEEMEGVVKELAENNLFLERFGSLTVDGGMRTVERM

Which Kd [1] does the source give for “purified recombinant zebrafish IRF3 (His-tagged) (natural protein)” here?
The Kd was 70 µM.

And the Kd [2]?
Its Kd is 81.7 µM.

B1: purified recombinant SVCV-P (His-tagged) (natural protein)
chain: MSLHSKLSESLKAYADLDKTVKEIEEQVSSMEEPVPKTVKYVTFEENLSEEEWESDSGDDDEDSIDDSLIPDYLRESSSITVDEDEEDQKEDMEEHLPTVSWEEEPTGIDIGFGPGIVMPSVSNHEGGTYVRYNGLGGVDPNCKDLISKMMRSLIGQIGNKYGYDIDLFDYQGDFLEVFLPHKPSKEDVRPDIRIGKKNEEGTSKQVSKPRGKEKIVLKTGDECGRFPMNKEAKKREPEGLWEVMKVLSVQFDPWKEDEPPLSLTIRDLFISESEFRLHCNHSQTEREMALVGIKLRRLYNKLYQKYRL
notes: phosphoprotein (P) of spring viremia of carp virus; The MST methods say only 'purified SVCV-P'; the His-only construct is surmised (EGFP-GST, EGFP-His and baculovirus EGFP-His forms were also made); also called pET28a-SVCV-P-His; source: E. coli BL21 (DE3), purified (Ni-NTA)
B1 was tested. Which Kd [3] did it give?
The Kd was 30.4 µM.

What about the Kd [4] of the same molecule?
Its Kd is 8.34 µM and 2.98 µM.
